{"source": "the DeepSol protein solubility set"}
{"assay": "soluble on expression in E. coli; label from the status in PepcDB or PDB records"}
{"sequence": "MTNFEYYRDFDDFQRRETINFFLSKFPLASQKQLQDFLEQARQAYVQLRQTNPAHLDWNQTLLYLAQKFLPEKQSEKDRLKKILVLQEQLKVRYEGEIKRQSQQNSELLIQLGQRDEEIIQMQQLFKEKERQLEVYQKQLNEAKEYNHKLEEHYNKTLEEALKEYEQQCTDAIHRRDEEIQAIFTSKLNEKNSEITQLQTYLQSAVDENEALQKQHKLVLFKNQKYEKMVSDLQVDLARIQEINNSLTSEKRDFQRANNDLVKQYNKLKNRLEQKLGEITNAQVNGQTHTVSLADTSQQFHRPQEAVIPQTQVISYTLDDMDDDMEVEETPPTTNKDLPRGATQPKRNSIKRVSKLID", "soluble on expression in E. coli": "soluble"}
{"sequence": "MMRPTVFSSKAVISSSSLSASLAGAKIIEKGGNIFDAAIAVSSVLSVTQNNLCGLGGDAFALVRYNGRVKGYNGSGKSSRNVNRGLYFELGYSRIPERGIYSAITVPGLVDLWNSLYLEYATMRFSDLISDAIKYAETGFYITRHYEESLIASSPILGQYNWSNQFMPYGKIPAEGDLFIQKDLAGTLREIAEEGPRSFYDGYLSDIIFKAMEKTNLLIDSKDLSDHKTLAANPVKSTYMDYDVFETAPNSQGATVNYWLALLEQKIQNKIPRPVDIVESGLEAYRWRSMFIGDPERMPFNGDLLSKGAGPYYNNPRVPEDKGDTTYFSISDANGNSISMIQSNYMGFGSGIIPEGTGFVLQNRGSYFTLDDKHHNSLEPRKRTFHTLAACIIEKDGELVYSLGTMGGDIQPQVQVQIITGLINQDLMPQEAIERPRWAFPATIYEQPSVLNVEDTSLINENETRLRINPMKYSSSFGTAQVTALLNGRVAGGSDPRGDGFSIPVMAGDPLEHHHHHH", "soluble on expression in E. coli": "not soluble"}
{"sequence": "MGSDKIHHHHHHMVLMPSPETIFIESGPLSARFRSDWGGRMTHLVHAEMGDILAPTQADVFEPYNWPRAGAYPLVPYHNRVYGASFVESGKTHRLLPHPALTPDAMHGPAHRRPWHVASAAEDRVTLQLNYEADDEWPFSFVAEQHFRLEPDRLIVELSIINSSDASAPVSLGWHPYLAVPLSSHAETDARLEYPLDALNVPTGNEAHPRSSRSIPAATGYTLHFRYWSTATVELDKGTLLLEADPIFEYLAVHRMEKYLCLEPVSMAAGALCLPETERESRGLRTILPEGRLSGRISLSIRG", "soluble on expression in E. coli": "not soluble"}
{"sequence": "MSVNNIDQLLGELKSAAALASGKQAPAAQQTPQVDFSDVLKSTIEQVNSAQQTSEEMQKQFQLGDNKEVNLQDVMMSLQKASLSFQTMVQARNKLVSAYQEIMNTQV", "soluble on expression in E. coli": "not soluble"}
{"sequence": "MSSTKIDTTKPLSILLLGVDTGADGRIDKGNSDTIMVVTINPQTKKTLITSIPRDSLAEMVGDQDTNVQKLNAAYNIGGSKMAKASVSKLFNVPIDYYATINMGGLKQIVDAVGGVTITSPLNVSFDHITVTKGKHHLNGKQALSYTRMRYQDPRGDYGRQLRQQQVMRAVLAKLAETKTYSRYNQLLTSLKGNLQTDLSFNDLVGLATHDRANMKHIQSTQVIGSPAWINTSSYQILSTKTLQQTSDRLRTQLGLSTETLTNMETKLNAKNTVYDGKTNLNYDTQGLDKITYSDNTKLEHHHHHH", "soluble on expression in E. coli": "soluble"}
{"sequence": "AVYGIDAMNPSSRDDFTEFGKLLKDKITQYEKSLYYASFLEVLVRDVCISLEIDDLKKITNSLTVLCSEKQKQEKQSKAK", "soluble on expression in E. coli": "soluble"}
{"sequence": "AIAAQEENKRLVVVVPNEMTVPSRRAFTSEDEAWKSYLENPLTAATKAMMSINGDEDSVAALGILYDYYKVPKEKRLLPVHKLPEDHEKSRISQDGLESAENRIHVLKSLPVNLSLNPDSENKQDLFGTVPAEDGVVATVKPEVYAQSFSSHHQQLHYHRTPYHPHLQDSVSVSHDRYMKDDQCSTPDSTFEDSYPEDPMRYRVPTTPAAEDFTHEQAGLNMFQYNIEASRSVREKAADGPMVYLNKGQFYGITLSETGANKGLRHPISKVRTVVMVVFGQEKCRDEQLKHWNYWHTRQHTAKQRVLDIADYKESFNTIGNIEEIAYNAVSFTWDPAAVHKSFCASVILL", "soluble on expression in E. coli": "soluble"}
{"sequence": "MASRLFGVKCHNTDSEPLKNEDLLKNLLTMGVDIDMARKRQPGVFHRMITNEQDLKMFLLSKGASKEVIASIISRYPRAITRTPENLSKRWDLWRKIVTSDLEIVNILERSPESFFRSNNNLNLENNIKFLYSVGLTRKCLCRLLTNAPRTFSNSLDLNKQMVEFLQAAGLSLGHNDPADFVRKIIFKNPFILIQSTKRVKANIEFLRSTFNLNSEELLVLICGPGAEILDLSNDYARRSYANIKEKLFSLGCTEEEVQKFVLSYPDVIFLAEKKFNDKIDCLMEENISISQIIENPRVLDSSISTLKSRIKELVNAGCNLSTLNITLLSWSKKRYEAKLKKLSRFAHHHHHH", "soluble on expression in E. coli": "soluble"}
{"sequence": "MNTVFSNIANAKITEKSLNAVWMDLFKSADEVLMATGYVSNDAVVELHKILELNDHIQKIDLLVGMHYLEGFSHLQYDSLCKLNDFLRHEKRGAVYVSPFVKFHGKMYSFKNYQKINGLIGSANLTCFWDSTERTYETMLHLNGKPAQILQADIQSTIHKLGKNIQEVERPSKFIEHNSHLENCLGVQKIAPEQIRQLFAQTSEYHFSIPAKTEEKSNLNVFFGEGRRDKRGFVKPRPWYEVELIVSKDITSQEGYPVLKSFTVITDDGWQFQCKTSGDYSKNFRSENDLKTLGKWIKGRLESHGCLQNNEKITHETLREYGNDHFELRSTDNPDVWLLSFKGKN", "soluble on expression in E. coli": "not soluble"}
{"sequence": "MGSDKIHHHHHHMEAKKSKAIVFSGVNQIELREVTLKPVSSTDVLVETWWSSISTGTEKMALNGLIPSPPFIFPFIPGYETVGRIVEAGDHVNQGLIGKFAYVAGSFGYEDVNAAFGGASQFIVCPVESLTVLDGIANPQCGIALPLGATALHIVDLAEVKNRKVLVLGQGAVGILAAELAKRFGASLVAVTEPHQRRLDISTSDIKVNPEKQDVSVALAGHEFDVLIDSTGIMSAIETGLRFLKFHGKVIFGGYYQRMNIDYSQAFNKELSFIAARQWAKGDLHRVRELIAAGKINAEKIFTHQCTVDDNLMEAYMQAFSDSDCLKMIIHWKHGNEAGEHFPTCNTAN", "soluble on expression in E. coli": "not soluble"}
{"sequence": "MSLGELPPAPSDSKRTVFLDIDETLVHVTPYPLPFVKPDATFLLQEHRRPSDPPGVSPEYLPGVSAGAAPRAALLHVYYRPFLMPFLENLLQTNRCELVAFTAALREYADPILDGIETKLGGARGSVFAARLYRQHCARAPRSKDLVHAAPSRCLSRCVLLDNSVVSLAAQLANGLLLRPFYGDPQDRELEGVLAFLLDLLEKTGDIRESMKESGMLHKVTEGHHHHHH", "soluble on expression in E. coli": "not soluble"}
{"sequence": "MELTMKNPTVENLKVLTQEFFSLHWNAVLLGSDYPEWSDIYEFTGSMPNHDKQGVYAFVKNGVVTYIGVGASSNGTGRYAGHGLGKRFQSYSKVVDGRHVPTDPRLVDAGAMITIGFKPEQSYLAYALEMFLIGKMSTEHNINRPSK", "soluble on expression in E. coli": "not soluble"}
{"sequence": "MGSDKIHHHHHHMNNVLILYPKLFNCYSKFSRKVLKITSSLGAATLVYPDDPNGLIEKFCEESSGKMTNKEFPNWTPDDITHAIIFDDGEEFIEETERLKESKKPLRLIGICITRVINIKTETEYQSEKSTPIYEYIGRGSYWGNPYSMFEEGEDREEVIRKYKYDFDFEKFPNKEKSEVYKLAGKRLGCFCKPQACHGDVLADFLNSWDDGK", "soluble on expression in E. coli": "not soluble"}
{"sequence": "SGGRPIQFFRRLAIWKYMKDYFPVSLVKTAELDPSRNYIAGFHPHGVLAAGAFLNLCTESTGFTSLFPGIRSYLMMLTVWFRAPFFRDYIMSGGLVSSEKVSADHILSRKGGGNLLAIIVGGAQEALDARPGAYRLLLKNRKGFIRLALMHGAALVPIFSFGENNLFNQVENTPGTWLRWIQNRLQKIMGISLPLFHGRGVFQYSFGLMPFRQPITTIVGKPIEVQMTPQPSREEVDRLHQRYIKELCKLFEEHKLKFNVPEDQHLEFC", "soluble on expression in E. coli": "soluble"}
{"sequence": "AAASFGQTKIPRGNGPYSVGCTDLMFDHTNKGTFLRLYYPSQDNDRLDTLWIPNKEYFWGLSKFLGTHWLMGNILRLLFGSMTTPANWNSPLRPGEKYPLVVFSHGLGAFRTLYSAIGIDLASHGFIVAAVEHRDRSASATYYFKDQSAAEIGDKSWLYLRTLKQEEETHIRNEQVRQRAKECSQALSLILDIDHGKPVKNALDLKFDMEQLKDSIDREKIAVIGHSFGGATVIQTLSEDQRFRCGIALDAWMFPLGDEVYSRIPQPLFFINSEYFQYPANIIKMKKCYSPDKERKMITIRGSVHQNFADFTFATGKIIGHMLKLKGDIDSNVAIDLSNKASLAFLQKHLGLHKDFDQWDCLIEGDDENLIPGTNINTTNQHI", "soluble on expression in E. coli": "soluble"}
{"sequence": "ACRISPGQINQVRPKLPLLKILHAAGAQGEMFTVKEVMHYLGQYIMVKQLYDQQEQHMVYCGGDLLGELLGRQSFSVKDPSPLYDMLRKNLVTLATATTDA", "soluble on expression in E. coli": "soluble"}
